Results from patent US20250018040A1 (UNITED STATES OF AMERICA AS REPRESENTED BY THE SECRETARY …, published 2025).
Values belong to the binder of their own block, whether it stands above or below them.

Experiments:
[1] = target: T1, full length Fc-mesothelin (UniProt Q13421 296-598, limits assumed); assay: flow cytometry: Fc-mesothelin bound to 293T cells transfected with the CAR vector, detected with fluorescent anti-Fc antibody (column: Expressed by 293T cells?)
T1 construct: it is written here as in the name; also called Fc-MSLN; full length mesothelin attached to an Fc protein; not shown: Fc protein
Protocol: 293T cells were independently transduced with the CAR-T vectors. Expression of each Fv by the 293T cells was tested. The CAR-T vectors were transfected into 293T cells. After two days of culture, Fc-mesothelin was bound to the cells. The bound Fc protein was detected by a secondary anti-Fc-antibody conjugated to a fluorescent dye using flow cytometry.

[2] = target: T1, full length Fc-mesothelin; assay: Western blot
Protocol: (§1) A Western blot assay was carried out to test the ability of mAb 15B6 or control mAb MN to bind to full length Fc-mesothelin and shed mesothelin, which had been shed by OVCAR-8 cells. Equal amounts of OVCAR-8 cell growth media were collected. The proteins were resolved by SDS gel electrophoresis. The bands were detected by Western blot using the antibodies MN and/or 15B6. Full length mesothelin attached to an Fc protein was used as positive control and reacts with both antibodies.

shed mesothelin = target: T2, shed mesothelin (UniProt Q13421 296-585, limits assumed); assay: Western blot of OVCAR-8 growth medium
T2 construct: also called Shed MSLN; mesothelin shed by OVCAR-8 cells
Protocol: as §1

T1 sequence (Q13421 other isoform, or with tags, fused parts or gaps limits assumed): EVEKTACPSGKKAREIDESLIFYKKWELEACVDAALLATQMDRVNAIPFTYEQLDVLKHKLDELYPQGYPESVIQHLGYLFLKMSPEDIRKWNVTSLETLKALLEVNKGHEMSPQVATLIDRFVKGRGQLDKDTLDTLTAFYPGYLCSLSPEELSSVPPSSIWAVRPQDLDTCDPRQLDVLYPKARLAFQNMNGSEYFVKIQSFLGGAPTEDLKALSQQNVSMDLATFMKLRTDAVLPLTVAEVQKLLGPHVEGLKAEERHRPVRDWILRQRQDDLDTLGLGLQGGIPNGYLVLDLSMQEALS
T2 sequence (Q13421 other isoform, or with tags, fused parts or gaps limits assumed): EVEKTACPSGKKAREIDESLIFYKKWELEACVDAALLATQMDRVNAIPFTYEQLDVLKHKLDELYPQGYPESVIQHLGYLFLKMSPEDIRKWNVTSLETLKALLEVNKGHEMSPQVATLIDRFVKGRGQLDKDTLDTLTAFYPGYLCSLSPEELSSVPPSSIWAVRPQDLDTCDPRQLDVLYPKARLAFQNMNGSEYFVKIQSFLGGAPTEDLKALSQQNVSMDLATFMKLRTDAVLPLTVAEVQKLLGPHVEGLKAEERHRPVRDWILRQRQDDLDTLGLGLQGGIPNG

binding result [1]: binds
B1: CAR Construct No. 2, 15B6 scFv (Vh-lin-Vl) (other)
chain: MEVQLQQSGPVLVKPGASVKISCKASGYSFTGYYMHWVRQSLVKRLEWIGRINPYTGVPSYKHNFKDKASLTVDKSSSTAYMELHSLTSEDSAVYYCARELGGYWGQGTTLTVSSGGGGSGGGGSGGGGSQAVVTQESALTTSPGETVTLTCRSSTGAVTTGNYPNWVQEKPDHLFTGLIAGTNNRAPGVPARFSGSLIGDKAALTITGAQTEDEAIYFCALWFSSHWVFGGGTKLTVLTSTTTPAPRPPTPAPTIASQPLSLRPEACRPAAGGAVHTRGLDFACDIYIWAPLAGTCGVLLLSLVITKRGRKKLLYIFKQPFMRPVQTTQEEDGCSCRFPEEEEGGCELRVKFSRSADAPAYQQGQNQLYNELNLGRREEYDVLDKRRGRDPEMGGKPRRKNPQEGLYNELQKDKMAEAYSEIGMKGERRRGKGHDGLYQGLSTATKDTYDALHMQALPPR
notes: Chimeric antigen receptor on 293T cells or T cells

binding result [2]: binds
binding result (shed mesothelin): no binding
B2: mAb 15B6 (antibody, mouse IgG2b, V domains shown)
VH: EVQLQQSGPVLVKPGASVKISCKASGYSFTGYYMHWVRQSLVKRLEWIGRINPYTGVPSYKHNFKDKASLTVDKSSSTAYMELHSLTSEDSAVYYCARELGGYWGQGTTLTVSS
VL: QAVVTQESALTTSPGETVTLTCRSSTGAVTTGNYPNWVQEKPDHLFTGLIAGTNNRAPGVPARFSGSLIGDKAALTITGAQTEDEAIYFCALWFSSHWVFGGGTKLTVL
notes: Murine IgG2b; For flow cytometry it was conjugated to ALEXA FLUOR 647; also called monoclonal antibody 15B6; 15B6 (IgG2b)
